# Target: human CD3 epsilon (on human T cells / CD3-positive Jurkat E6-1 cells) (human) (UniProt P07766)
# Experiment: FACS on expanded human T cells (hum PBL), antibody at 10 µg/ml, Alexa488-labelled secondary antibody, geomean of fluorescence
# human CD3 epsilon (on human T cells / CD3-positive Jurkat E6-1 cells) (human), sequence (P07766 23-207 limits assumed): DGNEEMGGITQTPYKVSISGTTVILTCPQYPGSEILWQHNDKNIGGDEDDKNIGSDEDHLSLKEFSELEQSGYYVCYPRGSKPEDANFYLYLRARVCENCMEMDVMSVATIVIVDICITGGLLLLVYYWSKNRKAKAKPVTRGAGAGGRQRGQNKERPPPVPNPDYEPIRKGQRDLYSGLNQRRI
row,geomean at 10 µg/ml,Substance
1,47,Iso rb (antibody)
2,44,M-IgG1 (antibody)
3,15900,anti-CD3 reference antibody SP34-2
4,85,hu-IgG1 (antibody)

# Target: cynomolgus CD3 epsilon (on expanded cynomolgus T cells) (cynomolgus) (UniProt Q95LI5)
# Experiment: FACS on expanded cynomolgus T cells (cyno PBL), antibody at 10 µg/ml, Alexa488-labelled secondary antibody, geomean of fluorescence
# cynomolgus CD3 epsilon (on expanded cynomolgus T cells) (cynomolgus), sequence (Q95LI5 22-197 limits assumed): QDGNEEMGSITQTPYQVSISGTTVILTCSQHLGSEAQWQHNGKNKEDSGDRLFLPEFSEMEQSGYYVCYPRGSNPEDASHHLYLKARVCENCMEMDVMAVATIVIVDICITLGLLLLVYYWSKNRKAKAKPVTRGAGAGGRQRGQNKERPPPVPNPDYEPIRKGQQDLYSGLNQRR
row,geomean at 10 µg/ml,Substance
1,40,Iso rb (antibody)
2,34,M-IgG1 (antibody)
3,19500,anti-CD3 reference antibody SP34-2
4,67,hu-IgG1 (antibody)

# Target: human CD3 epsilon (on human T cells / CD3-positive Jurkat E6-1 cells) (human) (UniProt P07766)
# Experiment: FACS on expanded human T cells (hum PBL), antibody at 0.1 µg/ml, Alexa488-labelled secondary antibody, geomean of fluorescence
row,geomean at 0.1 µg/ml,Substance
1,43,Iso rb (antibody)
2,40,M-IgG1 (antibody)
3,2610,anti-CD3 reference antibody SP34-2
4,54,hu-IgG1 (antibody)

# Target: human CD3 epsilon (on human T cells / CD3-positive Jurkat E6-1 cells) (human) (UniProt P07766)
# Experiment: FACS on expanded human T cells (hum PBL), antibody at 1 µg/ml, Alexa488-labelled secondary antibody, geomean of fluorescence
row,geomean at 1 µg/ml,Substance
1,39,Iso rb (antibody)
2,42,M-IgG1 (antibody)
3,9610,anti-CD3 reference antibody SP34-2
4,56,hu-IgG1 (antibody)

# Target: cynomolgus CD3 epsilon (on expanded cynomolgus T cells) (cynomolgus) (UniProt Q95LI5)
# Experiment: FACS on expanded cynomolgus T cells (cyno PBL), antibody at 1 µg/ml, Alexa488-labelled secondary antibody, geomean of fluorescence
row,geomean at 1 µg/ml,Substance
1,38,Iso rb (antibody)
2,33,M-IgG1 (antibody)
3,16500,anti-CD3 reference antibody SP34-2
4,64,hu-IgG1 (antibody)

# Target: cynomolgus CD3 epsilon (on expanded cynomolgus T cells) (cynomolgus) (UniProt Q95LI5)
# Experiment: FACS on expanded cynomolgus T cells (cyno PBL), antibody at 0.1 µg/ml, Alexa488-labelled secondary antibody, geomean of fluorescence
row,geomean at 0.1 µg/ml,Substance
1,37,Iso rb (antibody)
2,33,M-IgG1 (antibody)
3,5000,anti-CD3 reference antibody SP34-2
4,61,hu-IgG1 (antibody)

# Reference: patent US20200325224A1
